Data from article PMC3014985.
Like-named read-outs stand apart in the source and are kept apart here.

Legend:
Test in all cases: SEC
[1] = biological target: TOSV NP (Toscana virus nucleoprotein after removal of the TRX-6His tag) (Toscana virus (strain AR2005)) (UniProt P21701)
[2] = biological target: TOSV NP (Toscana virus nucleoprotein after removal of the TRX-6His tag) (Toscana virus (strain AR2005)) (UniProt P21701); remark: listed apart in the source
[3] = biological target: 6His-TOSV NP (Toscana virus nucleoprotein with N-terminal hexahistidine tag), refolded (Toscana virus (strain AR2005)) (UniProt P21701)
[4] = biological target: RVFV NP (Rift Valley fever virus nucleoprotein after removal of the TRX-6His tag) (Rift Valley fever virus (strain Smithburn)) (UniProt P21700)

Question: “TOSV NP (Toscana virus nucleoprotein after removal of the TRX-6His tag) (from UniProt P21701 1-253) (natural protein)” was tested. Which stoichiometry N [1] did it give?
Answer: Its stoichiometry N is 3.

Question: What about the stoichiometry N [2] of the same substance?
Answer: The stoichiometry N was 6.

Question: For “6His-TOSV NP (Toscana virus nucleoprotein with N-terminal hexahistidine tag), refolded (from UniProt P21701 1-253) (natural protein)”, which stoichiometry N [3] is on record?
Answer: Its stoichiometry N is 3.

Question: “RVFV NP (Rift Valley fever virus nucleoprotein after removal of the TRX-6His tag) (from UniProt P21700 1-245) (natural protein)” was tested. Which stoichiometry N [4] did it give?
Answer: Its stoichiometry N is 3.
